{
  "source": "patent US20150299314A1",
  "about": "(TORAY INDUSTRIES, published 2015)",
  "binders": {"B1": {"name": "mouse monoclonal antibody #5 (antibody, V domains shown)", "VH": "DAELVKPGASVKISCKASGYTFTDHSIHWVQQKPEQGLEWIGYISPGNGNIKYNEKFKGKATLTADKSSSTAYMQLNSLTSEDSAVYFCKRSLGRGGPYYFDYWGQGTTVTVSS", "VL": "DIVLTQAAPSLPVTPGESVSISCRSSKSLLHSNGNTYLYWFLQRPGQSPQLLIYRMSNLASGVPDRFSGSGSGTAFTLRISRVEAEDVGVYYCMQHREYPVTFGSGPN", "notes": "mouse hybridoma antibody; also called anti-CAPRIN-1 mouse monoclonal antibody #5; anti-CAPRIN-1 monoclonal antibody #5"}, "B2": {"name": "rabbit anti-CAPRIN-1 monoclonal antibody #1 (antibody, V domains shown)", "VH": "QSLEESGGDLVKPGASLTLTCTASGFSFSGSYYMSWVRQAPGKGLEWIAYIYIGDGVTAYANWAKGRFTISKASSTTVTLQMTSLTAADTATYFCARGNKLWGPGTLVTVSS", "VL": "DVVMTQTPASVEAAVGGTVTIKCQASQSISSYLAWYQQKPGQPPKRLIYDASNLDSGVPSRFKGSGSGTDFTITISDLECADAATYYCQCTAVSSATIYGNAFGGGTEVVVK", "notes": "rabbit hybridoma antibody"}, "B3": {"name": "human-rabbit chimeric anti-CAPRIN-1 antibody #1 (antibody, V domains shown)", "VH": "QSLEESGGDLVKPGASLTLTCTASGFSFSGSYYMSWVRQAPGKGLEWIAYIYIGDGVTAYANWAKGRFTISKASSTTVTLQMTSLTAADTATYFCARGNKLWGPGTLVTVSS", "VL": "DVVMTQTPASVEAAVGGTVTIKCQASQSISSYLAWYQQKPGQPPKRLIYDASNLDSGVPSRFKGSGSGTDFTITISDLECADAATYYCQCTAVSSATIYGNAFGGGTEVVVK", "notes": "also called human-rabbit chimeric anti-CAPRIN-1 monoclonal antibody #1"}},
  "key": {"[1]": {"molecular_target": "T1, CAPRIN-1 protein expressed on the cell surface of human cancer cells (human, UniProt Q14444 2-709)", "T1 sequence (looked up)": "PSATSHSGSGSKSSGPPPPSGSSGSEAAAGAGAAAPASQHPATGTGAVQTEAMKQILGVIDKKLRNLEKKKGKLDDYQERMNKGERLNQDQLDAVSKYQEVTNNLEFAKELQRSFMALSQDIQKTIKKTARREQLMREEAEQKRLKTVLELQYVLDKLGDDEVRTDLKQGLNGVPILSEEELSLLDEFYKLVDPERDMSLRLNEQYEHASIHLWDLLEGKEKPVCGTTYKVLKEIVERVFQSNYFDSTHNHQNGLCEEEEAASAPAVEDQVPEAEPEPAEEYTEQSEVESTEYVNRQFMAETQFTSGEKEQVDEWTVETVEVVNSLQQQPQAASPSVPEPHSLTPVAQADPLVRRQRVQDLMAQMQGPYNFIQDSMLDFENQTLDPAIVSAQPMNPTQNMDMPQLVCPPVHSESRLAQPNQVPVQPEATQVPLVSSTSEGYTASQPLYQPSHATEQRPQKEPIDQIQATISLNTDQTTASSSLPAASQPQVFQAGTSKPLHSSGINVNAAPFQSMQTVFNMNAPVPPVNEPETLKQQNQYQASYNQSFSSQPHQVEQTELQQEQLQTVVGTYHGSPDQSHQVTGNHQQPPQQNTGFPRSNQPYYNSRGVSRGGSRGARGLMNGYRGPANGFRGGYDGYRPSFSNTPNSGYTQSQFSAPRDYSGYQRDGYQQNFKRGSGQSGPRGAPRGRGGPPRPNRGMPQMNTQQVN", "assay": "cell-based or functional assay"}, "[2]": {"molecular_target": "T2, polypeptide set forth in SEQ ID NO: 266 (human)", "T2 construct": "Identified from ELISA on 93 synthetic peptides of 12 to 16 amino acids of human CAPRIN-1", "T2 peptide": "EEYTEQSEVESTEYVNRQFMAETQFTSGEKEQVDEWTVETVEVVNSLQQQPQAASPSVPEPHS", "assay": "ELISA on immobilized synthetic CAPRIN-1 peptides, culture supernatant"}, "[3]": {"molecular_target": "T3, peptide set forth in SEQ ID NO: 268 (human)", "T3 peptide": "FTSGEKEQVDEW", "assay": "ELISA on immobilized synthetic CAPRIN-1 peptides, culture supernatant"}, "[4]": {"molecular_target": "T1, CAPRIN-1 protein expressed on the cell …", "assay": "flow cytometry, TGBC14TKB cells, culture supernatant, isotype control antibody as control"}, "[5]": {"molecular_target": "T4, polypeptide set forth in SEQ ID NO: 430 (human)", "T4 peptide": "ATQVPLVSSTSEGYTA", "assay": "ELISA on 93 immobilized synthetic peptides of human CAPRIN-1, purified antibody 0.1 ug/mL", "description": "Candidate peptides (93 peptides) each consisting of 12 to 16 amino acids of the amino acid sequence of the human CAPRIN-1 protein were synthesized and were each dissolved at a concentration of 1 mg/mL in DMSO. Each peptide was dissolved at a concentration of 30 μg/mL in a 0.1 M sodium carbonate buffer (pH 9.6). The solution was added to a 96-well plate (manufactured by Nunc, Product No. 436006) at 100 μL per well, followed by being left to stand at 4° C. overnight. The solution was removed, and 200 μL of 10 mM ethanolamine/0.1 M sodium carbonate buffer (pH 9.6) was added to each well, followed by being left to stand at room temperature for 1 hour. The solution was removed, and each well was washed with PBS containing 0.5% Tween 20 (PBST) twice to prepare a peptide-immobilized plate. For confirmation, this plate was also provided with a well to which the CAPRIN-1 protein was immobilized in accordance with the method described above. Rabbit anti-CAPRIN-1 monoclonal antibody #1 purified to a concentration of 0.1 ug/mL by a usual method was added to the plate at an amount of 50 μL per well, followed by shaking at room temperature for 1 hour. The solution was removed, and each well was washed with PBST three times. […] The absorbance was measured at 450 nm and 595 nm with an absorption spectrometer. […]"}, "[6]": {"molecular_target": "T4, polypeptide set forth in SEQ ID NO: 430", "assay": "ELISA as in Example 13(1), purified antibody"}},
  "data": [
    {"binder": "B1", "values": [
      {"measurement": "cytotoxicity (ADCC, 51Cr release) on TGBC14TKB, human NK cells", "setting": "[1]", "value": "≥ 15", "unit": "%"},
      {"measurement": "binding result", "setting": "[2]", "value": "binds"},
      {"measurement": "binding result", "setting": "[3]", "value": "binds"},
      {"measurement": "rate of increase in mean fluorescence intensity over control", "setting": "[4]", "value": "≥ 20", "unit": "%"}
    ]},
    {"binder": "B2", "values": [
      {"measurement": "binding result", "setting": "[5]", "value": "binds"}
    ]},
    {"binder": "B3", "values": [
      {"measurement": "binding result", "setting": "[6]", "value": "binds"}
    ]}
  ]
}
